Series [1] concerns the target T1, GST-HbCBF1 (Hevea brasiliensis, UniProt Q4KP31 1-231). As to the kind of experiment: EMSA; 10 mM Tris-HCl pH 7.5, 100 mM KCl, 10% glycerol, 1 mM DTT, 0.1% NP-40, 1 mM spermidine, 0.5 ug fish sperm DNA, 4 ug protein, 1 ng probe, 25 C. Conditions: protein: recombinant; tags: N-terminal GST (pGEX-6p-1); label: 5'-digoxigenin (hot probe); blunt. A general note: A gel shift assay detects complexes by their altered migration in electrophoresis.

Series [2] addresses T1, GST-HbCBF1. As to the kind of experiment: competition EMSA; 125-fold molar excess cold competitor vs COR15a probe; 10 mM Tris-HCl pH 7.5, 100 mM KCl, 10% glycerol, 1 mM DTT, 0.1% NP-40, 1 mM spermidine, 0.5 ug fish sperm DNA, 4 ug protein, 1 ng probe, 25 C. The note with it: protein: recombinant; tags: N-terminal GST (pGEX-6p-1); blunt.

T1 sequence (Q4KP31 entry or part of it): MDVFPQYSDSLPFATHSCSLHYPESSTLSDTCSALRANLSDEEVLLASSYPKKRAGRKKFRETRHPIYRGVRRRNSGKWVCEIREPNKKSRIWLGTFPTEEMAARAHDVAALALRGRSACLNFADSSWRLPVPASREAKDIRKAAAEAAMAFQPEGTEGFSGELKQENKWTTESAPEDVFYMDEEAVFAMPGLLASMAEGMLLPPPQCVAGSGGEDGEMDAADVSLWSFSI

B1: COR15a (dsDNA)
DNA 1: TTTCATGGCCGACCTGCTTTTTT
DNA 2: AAAAAAGCAGGTCGGCCATGAAA
Regarding B1, the binding result with GST-HbCBF1 [1] is “binds”.

B2: COR15b (dsDNA)
DNA 1: CTGATGGCCGACCTCTTTTTT
DNA 2: AAAAAAGAGGTCGGCCATCAG
On to B2, for which, in the series with GST-HbCBF1 [2], the binding result is “binds”.

B3: RD29a (dsDNA)
DNA 1: ATATACTACCGACATGAGTTCT
DNA 2: AGAACTCATGTCGGTAGTATAT
With B3, the binding result with GST-HbCBF1 [2] is recorded as “binds”.

B4: RD29b (dsDNA)
DNA 1: CTACCGACATGAGTTCCAAAAAA
DNA 2: TTTTTTGGAACTCATGTCGGTAG
Take B4: in the series with GST-HbCBF1 [2], the binding result was “binds”.

For the origin of these results see PMC4567348, “Functional Characterization of Hevea brasiliensis CRT/DRE Binding Factor 1 Gene Revealed Regulation Potential in the CBF Pathway of Tropical Perennial Tree”.
